We go through 4 molecules from patent CN115819582A (HEFEI TIANGANG IMMUNOLOGY PHARMACEUTICAL CO LTD, dated 2023).

First the molecules themselves.
B1: 鼠单抗mAb001 (antibody, mouse IgG1, kappa, V domains shown)
VH: EVQLQQSGPDLVKTGASVKISCKAVGYSFTGYNVHWVKQSHDKSLEWIGYIHFYTGATDYNQKFKDKATFTVDASSNTAYMQFNSLTSEDSAVYYCAIMRWAVDYWGQGTSVTVSS
VL: QIVLTQSPTIMSASPGETVTMTCSVSSSVNYIYWYQQKSGASPKRWIYDTSKLASGVPSRFSGSGSGASYSLTISNMEAEDAATYYCQQWSSNPYTFGGGTKLEIKR
notes: Mouse monoclonal antibody from a hybridoma; also called PVRIG抗体
B2: 鼠单抗mAb002 (antibody, mouse IgG1, kappa, V domains shown)
VH: EVQLQQSGPELVKPGASMKISCKASGYSFTGYTMNWVKQSPGKNLEWIGLITPYNNDTSYNQKFKGKATLTVDKSSSTAYMELLSLTSEDSAVYYCARWVYGNYVGWFAYWGQGTLVTVSA
VL: DIVMTQSHKFMSTSVGDRVNITCKASQDVSTSVTWYQQKPGQSPKLLIYSTSYRYTGVPDRFTGSGSGTDFTFTISSVQAEDLAVYYCQQHYSTPWTFGGGTKLEIKR
notes: as for B1
B3: 鼠单抗mAb004 (antibody, mouse IgG1, kappa)
heavy: QVQLQQPGAELVKPGTSVKLSCKASGYNFTSYWINWVKLRPGQGLEWIGDIYPGNYSPNYNEKFLNKATLTTDTASSTAYMQLNNLASEDSAVYYCASGYFDYWGQGTTLIVSAAKTTPPSVYPLAPGSAAQTNSMVTLGCLVKGYFPEPVTVTWNSGSLSSGVHTFPAVLQSDLYTLSSSVTVPSSTWPSETVTCNVAHPASSTKVDKKIVPRDCGCKPCICTVPEVSSVFIFPPKPKDVLTITLTPKVTCVVVDISKDDPEVQFSWFVDDVEVHTAQTQPREEQFNSTFRSVSELPIMHQDWLNGKEFKCRVNSAAFPAPIEKTISKTKGRPKAPQVYTIPPPKEQMAKDKVSLTCMITDFFPEDITVEWQWNGQPAENYKNTQPIMDTDGSYFVYSKLNVQKSNWEAGNTFTCSVLHEGLHNHHTEKSLSHSPGK
light: DIVMTQSPSSLSVSAGEEVIMSCKSSQSLLNSGTQKNYLAWYQQKPGQPPKLLIYGTSTRESGVPDRFTGSGSGTDFTLTINNVQAEDLAIYYCQNDHSYPYTFGGGTKLEIKRADAAPTVSIFPPSSEQLTSGGASVVCFLNNFYPKDINVKWKIDGSERQNGVLNSWTDQDSKDSTYSMSSTLTLTKDEYERHNSYTCEATHKTSTSPIVKSFNRNEC
notes: as for B1
B4: 鼠单抗mAb003 (antibody, mouse IgG1, kappa, V domains shown)
VH: EVQLQQSGPELVKPGASVRITCKASGYTFTDYNIHWVKQSHGKSLEWIGYIYPYNGGSGYNQKFKSQATLTVDTSSTTAYMEIRSLTSEDSAVYYCAREEVRRDEALDFWGQGTSVTVSS
VL: DIQMTQSPASLSVSVGETVNITCRVSENIYSNLAWYQQKQGKSPQLLVYGASNLPDGVPSRFSGSGSGTQYSLKINTLQSEDFGTYYCQHFWGTPYTFGGGTKLEIKR
notes: as for B1

The target of the experiment is T1, 重组人PVRIG-人IgG1 Fc融合蛋白 (human).
T1 construct: The Fc gene was added at the C-terminus of the gene for the PVRIG extracellular domain; no linker or signal peptide is stated; also called 人PVRIG重组蛋白
T1 sequence (chain, as listed by the source limits assumed): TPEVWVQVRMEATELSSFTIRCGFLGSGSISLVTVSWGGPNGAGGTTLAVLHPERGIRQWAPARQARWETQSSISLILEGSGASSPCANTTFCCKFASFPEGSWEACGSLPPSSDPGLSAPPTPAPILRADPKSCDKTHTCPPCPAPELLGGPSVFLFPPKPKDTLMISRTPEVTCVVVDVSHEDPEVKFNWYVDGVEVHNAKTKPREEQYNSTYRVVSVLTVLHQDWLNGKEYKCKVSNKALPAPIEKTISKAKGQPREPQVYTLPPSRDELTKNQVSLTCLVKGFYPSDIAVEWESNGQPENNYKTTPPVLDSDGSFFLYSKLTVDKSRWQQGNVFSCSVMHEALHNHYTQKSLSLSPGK
Briefly: ELISA, coated PVRIG-Fc 0.5 ug/ml, anti-mouse IgG-HRP. On the technique in general: ELISA stands for enzyme-linked immunosorbent assay.
On to B1, for which the binding result is on record as “binds”. With B2, the binding result is “binds”.

For the molecule B3, the binding result is listed as “binds”. As to B4, the binding result is recorded as “binds”.
